Reference: patent publication US6497872B1, “Neural transplantation using proliferated multipotent neural stem cells and their progeny” (NeuroSpheres Holdings Ltd., priority 1991, dated 2002)

What was measured:
[1] = test system: EGF-generated precursor cells; test: Screening of BDNF on differentiation and survival of stem cell progeny (Example 37); assay type: cell-based, mouse
Procedure: Precursor cells were propagated as described in Example 4 and differentiated using Paradigm 3 described in Example 7. At the time of plating the EGF-generated cells, BDNF was added at a concentration of 10 ng/ml. At 3, 7, 14, and 21 days in vitro (DIV), cells were processed for indirect immunocytochemistry. BrdU labeling was used to monitor proliferation of the precursor cells. The effects of BDNF on neurons, oligodendrocytes and astrocytes were assayed by probing the cultures with antibodies that recognize antigens found on neurons (MAP-2, NSE, NF), oligodendrocytes (O4, GalC, MBP) or astrocytes (GFAP). Cell survival was determined by counting the number of immunoreactive cells at each time point and morphological observations were made.
Cells treated with BDNF according to the methods described in Part A were probed with antibodies that recognize neural transmitters or enzymes involved in the synthesis of neural transmitters. These included TH, ChAT, substance P, GABA, somatostatin, and glutamate. In both control and BDNF-treated culture conditions, neurons tested positive for the presence of substance P and GABA.
Cells that are responsive to growth factor treatment were identified by differentiating the EGF-generated progeny as described in Example 7, paradigm 3 and at 1 DIV adding approximately 100 ng/ml of BDNF. At 1, 3, 6, 12 and 24 hours after the addition of BDNF the cells were fixed and processed for dual label immunocytochemistry. Antibodies that recognize neurons (MAP-2, NSE, NF), oligodendrocytes (O4, GalC, MBP) or astrocytes (GFAP) were used in combination with an antibody that recognizes c-fos and/or other immediate early genes.

[2] = test system: EGF-generated neurospheres; test: Effect of growth factors on neurosphere differentiation, immunocytochemistry (Example 8); assay type: cell-based, mouse; details: paradigm 3; BDNF
Procedure: Six to 8 days after the first passage, the neurospheres were removed and centrifuged at 400 r.p.m. The EGF-containing supernatant was removed and the pellet suspended in EGF-free complete medium containing 1% FBS. Neurospheres (approximately 0.5-1.0×10^6 cells/well) were plated on poly-L-ornithine-coated (15 μg/ml) glass coverslips in 24 well Nuclon (1.0 ml/well) culture dishes. After 24 hours in culture, the coverslips were transferred to 12 well (Costar) culture dishes containing complete medium containing 0.5% FBS. The medium was changed every 4-7 days. This differentiation procedure is referred to as the “Rapid Differentiation Paradigm” or RDP.
Six to 8 days after the first passage, the neurospheres were removed and centrifuged at 400 r.p.m. The EGF-containing media was removed and the pellet was suspended in EGF-free complete medium containing 1% FBS. The neurospheres were mechanically dissociated into single cells with a fire-polished Pasteur pipette and centrifuged at 800 r.p.m. for 5 minutes. Between 0.5×10^6 and 1.0×10^6 cells were plated on poly-L-ornithine-coated (15 μg/ml) glass coverslips in 24 well Nuclon (1.0 ml/well) culture dishes. The EGF-free culture medium containing 1% FBS was changed every 4-7 days.
Neurospheres were washed free of EGF by serial transfers through changes of EGF-free medium. A single neurosphere was plated onto poly-L-ornithine-coated (15 μg/ml) glass coverslips in a 24-well plate. The culture medium used was complete medium with or without I % FBS. The medium was changed every 4-7 days.
Neurospheres were washed free of EGF by serial transfers through changes of EGF-free medium. A single neurosphere was mechanically dissociated in a 0.5 ml Eppendorf centrifuge tube and all the cells were plated onto a 35 mm culture dish. Complete medium was used with or without 1% FBS.
The effects of CNTF, FGF-2, BDNF, and retinoic acid on neurosphere differentiation were tested using the differentiation paradigms set forth in Example 7.
The effect of CNTF was assayed in paradigms 1 and 3. For both paradigms, CNTF was added either at the beginning of the experiment at a concentration of 10 ng/ml or daily at a concentration of 1 ng/ml.
Three different antibodies directed against 04, galactocerebroside (GalC) and MBP were used to study the effect of CNTF on the oligodendrocytes of paradigm 1. CNTF had no effect on the number of 04(+) cells, but there was an increase in the number of GalC(+) and MBP(+) cells compared with the control. Thus it appears that CNTF plays a role in the maturation of oligodendrocytes.
The effect of FGF-2 was tested using paradigms 2 and 4. In paradigm 2, 20 ng/ml of FGF-2 was added at the beginning of the experiment and cells were stained 7 days later. FGF-2 increased the number of GFAP(+) cells and the number of NSE(+) cells.
In paradigm 4, 20 ng/ml of FGF-2 was added at the beginning of the experiment and assayed 7-10 days later. […] It induced two different cell types to divide, neuroblasts and bipotential progenitor cells. The neuroblast produced, on average, 6 neurons while the bipotential cell produced approximately 6 neurons and a number of astrocytes.

[3] = test system: EGF-generated mouse neurospheres; test: BDNF on single EGF-generated neurospheres (Example 12); assay type: cell-based; details: 10 ng/ml; 14-28 days in vitro; preliminary experiments
Procedure: The expression of the trk family of neurotrophin receptors in EGF-generated neurospheres was examined by northern blot analysis. Total mRNA was isolated from mouse and rat striatal EGF-generated neurospheres. […] In preliminary experiments, single EGF-generated mouse neurospheres were plated on poly-L-ornithine coated glass coverslips and cultured in the absence or presence of 10 ng/ml of BDNF. […] Activation of the trkB receptor on EGF-generated neurospheres may enhance differentiation, survival of and/or neurite outgrowth from newly generated neurons.

B1: BDNF: brain-derived neurotrophic factor (protein, UniProt P23560 19-247, looked up)
Neurotrophic factor BDNF …: APMKEANIRGQGGLAYPGVRTHGTLESVNGPKAGSRGLTSLADTFEHVIEELLDEDQKVRPNEENNKDADLYTSRVMLSSQVPLEPPLLFLLEEYKNYLDAANMSMRVRRHSDPARRGELSVCDSISEWVTAADKKTAVDMSGGTVTVLEKVPVSKGQLKQYFYETKCNPMGYTKEGCRGIDKRHWNSQCRTTQSYVRALTMDSKKRIGWRFIRIDTSCVCTLTIKRGR
neurite extension and branching ([1]; 10 ng/ml): dramatic increase | Astrocyte and oligodendrocyte numbers versus control ([1]; 10 ng/ml, paradigm 3): not significantly altered | differentiation and survival of neurons versus control ([1]; 10 ng/ml, paradigm 3, 3-21 DIV): significantly increased | expression of c-fos ([1]; approximately 100 ng/ml at 1 DIV, 1-24 hours): selective increase in the expression of c-fos in neuronal cells | neuronal branching and migration of the neurons away from the sphere [2]: increase | number of NSE(+) neurons per neurosphere [2]: increase | morphology of NSE(+) cells [3]: NSE(+) cells with extensive and highly branched processes
